Tests used:
[1] = target: MsFcγRIα-EGFP (largemouth bass FcγRIα fused to EGFP, expressed on transfected HEK293 cells) (largemouth bass (Micropterus salmoides)); assay: flow cytometry on cells; MsFcγRIα-EGFP-transfected HEK293 cells in serum-free DMEM, 20 μg/mL purified MsIgM added for 6 h at 37 °C; bound MsIgM detected with anti-MsIgM mAb MM06H and Alexa Fluor 647 goat anti-mouse IgG; n = 3
[2] = target: MsFcγRIα-EGFP (largemouth bass FcγRIα fused to EGFP, expressed on transfected HEK293 cells) (largemouth bass (Micropterus salmoides)); assay: flow cytometry on cells; MsFcγRIα-EGFP-transfected HEK293 cells in serum-free DMEM, 20 μg/mL purified MsIgM added for 12 h at 37 °C; bound MsIgM detected with anti-MsIgM mAb MM06H and Alexa Fluor 647 goat anti-mouse IgG; n = 3
[3] = target: MsFcγRIα-EGFP (largemouth bass FcγRIα fused to EGFP, expressed on transfected HEK293 cells) (largemouth bass (Micropterus salmoides)); assay: flow cytometry on cells; MsFcγRIα-EGFP-transfected HEK293 cells in serum-free DMEM, 20 μg/mL purified MsIgM added for 24 h at 37 °C; bound MsIgM detected with anti-MsIgM mAb MM06H and Alexa Fluor 647 goat anti-mouse IgG; n = 3

Substance: largemouth bass IgM (MsIgM), purified from serum (natural protein)
- percent of MsFcγRIα-expressing HEK293 cells with MsIgM after 6 h incubation [1]: 19.7%
- percent of MsFcγRIα-expressing HEK293 cells with MsIgM after 12 h incubation [2]: 26.3%
- percent of MsFcγRIα-expressing HEK293 cells with MsIgM after 24 h incubation [3]: 40.3%

From PMC9699129
